Results: the DeepSol protein solubility set

Experiment: soluble on expression in E. coli; label from the status in PepcDB or PDB records

Row | Sequence | soluble on expression in E. coli
1 | MQFNYDVIVVGAGHAGCEAAAAAAKLGSQVLLITPDMNKIAQMSCNPAVGGIAKGQIVREIDALGGRMGIVTDATAIQFRMLNRSKGPAMWSPRAQSDRMRFMEAWRDIVEHEPNLYMWQDSVRCLSIRQGAVAGVVTALGVEFQARTVVLTTGTFLGGVMHFGERMIEGGRIAEPAFHGITEQLRDLGFRTDRMKTGTPARIDGRSIDFSLTTEQSGEEDHHRFSYMDTPRRVLRQRSCYALYTNPECHEILSKGLDRSPLYNGQIQSIGPRYCPSIETKIVTFADKEMHQLFLEPEGETSNEFYLNGFSSSLPLEIQLEALKAIPALRHVHIYRPGYAIEYDFFDPTQLRHTLETKPVKGLFFAGQINGTTGYEEAAGQGLIAGINAHLHCHGAGEFTLGRDEAYIGVLIDDLVSKGVDEPYRMFTSRAEYRILLRQDDADMRLTPKAEAIGLADSRRSELLREKQVFRDKLIDFTHKFSLKPDLINPHLESAGHLPLKQGIKLYDLLLRPQIGMNEVCSMVPSLQRIVEEIPASRREEIVEAAEILIKYDGYIKRERALADKINRLESIRLPQHVDYMQMQSLSTEARQKLTSIRPETIAQASRIPGVSPHDVSILLVLCGR | not soluble
2 | MQFQRARSDKQKNIRMSEIVNATINLYESLQYDKITLALIAKQLSFSRANLYKYVSTKEEIFLLIISGDIENWSKEVVKFFDKYDALSAEEFCKLWSELLYRHKRIIELFCILNTIIARNVSAEKLAAFKKQIHKDFTRTKKVVKRFFPFMSKEQLKFFIEYQMKYAVGVYPATIINDVQKKASELSGIPSNVKDFESSFSKFLMVILNGIEITI | not soluble
3 | MQFSKMHGLGNDFMVVDAVTQNVYFSPELIRRLADRHTGVGFDQMLVVEPPYDPELDFHYRIFNADGSEVSQCGNGARCFARFVRLKGLTNKREISVSTQTGRMILSVTEDEQVCVNMGEPDFEPQTVPFRAAKAEKTYILRAAEHTVLCGVVSMGNPHCVMQVDDVSVANVALLGPVLENHERFPERANIGFMQVVSRDHIRLRVYERGAGETQACGSGACAAVAVGVVQDLLNENVHVELPGGSLHIRWQGPGHPLYMTGPATHVYDGFIHL | not soluble
4 | MQGKDNYQEQQEINSTDEEGMIFQLADTTIQACNAAAERIIGYKNEQILGKTPFKPPWQIVHEDGTIFTPETVPPIVALQTGKPCKNVVMGLYQPTGQLVWLLLNSQPLFQTNKSTPYAVVTTFTDFTKVKCRQSRSDACITNNKKLIVTWNQDQAVEISPNTDKQKLNQPVAEPISDDCTKAFLSMQNHILELIATGNSLSEILEKLAQSIEAQLAEVFCSIMLLNDTGTKLYPGVSSSLPEKYIQELKNGVPVGADVGSCGTSAYTKQTVIVSDIASDHKWVKYRDLTLTNNLKACWSTPILDSQGHVLGTFALYYPTVRIPQKSDLQLIERASHLAGVAIERQRWQLALQQSEYQLRLMTETIPQQVWTAQPNGLVDYYNQRWCDFTGKTQEQLKTESWEQIIHPEDLPKVEELWAKAVQTGSDYEVETRMLSGSGEYHWILGQARPLRNQQGQIVKWYGTNTDITDHIQAREALRESELNFRTLADTMPQMIWTAKGDGWLEYCNQRWLDYTGMTLEETQGWGWQPVLHPDDAQICIDIWSESVRTGQNYQIEYRLRRARDGQYRWHLGRAFPLRNQKGQIIKWFGSCTDIDDHKRSEEALRNALQEKQAAYEAAETANRVKDEFLAILSHELRTPLNPILGWSQLLKTGKLDKDKTDEALKSIERNAKLQVDLIDDLLDVSRILRGKLTLNVTTVNLADIISAALETMSLAASVKQIAVQTLIEPNIGKVRGDPARLQQIVWNLLSNAIKFTPQGGEVVVQLEQIGSMAHIIVSDQGKGINRKFLPHIFEHFRQEDGSTTRKFGGLGLGLAIVRHLVELHGGTVEADSPGEGQGTTLKVILPLISSLPVTVTNGQFEDVALSLKGIKILVVDDDVDSLAFVKVVLELYEATVTTAASAPEALQIGVQLKPDVLISDIGMPEMDGYELLRRMRALSSDLGGDIPAVSKAIPKAIALTAFAGELDEQQAMAAGFQIHIPKPVEPEALAAAVAQVLKINV | not soluble
5 | MQHLEAVRNILGDVLNLGERKHTLTASSVLLGNIPELDSMAVVNVITALEEYFDFSVDDDEISAQTFETLGSLALFVEHKLSH | soluble
6 | MQIFRDVSKLLVERVDPKILNLFRLLGKFGDEVNMPVYVVGGFVRDLLLGIKNLDIDIVVEGNALEFAEYAKRFLPGKLVKHDKFMTASLFLKGGLRIDIATARLEYYESPAKLPDVEMSTIKKDLYRRDFTINAMAIKLNPKDFGLLIDFFGGYRDLKEGVIRVLHTLSFVDDPTRILRAIRFEQRFDFRIEETTERLLKQAVEEGYLERTTGPRLRQELEKILEEKNPLKSIRRMAQFDVIKHLFPKTYYTPSMDEKMENLFRNIPWVEENFGEVDRFYAVLHVFLEFYDDESWKEVRDRYSLRRNLINEIRHVEKSAPALLEMLSERVPASFVYPLVKGVSNETICHFLAYLSGEKEGLFKSYLLKIKNTKLEKINGEYLIRKGITSGKIIGEVLEKILMKKLDGDTRDEEEILEEVLASLETEGKLAAALEHHHHHH | soluble
7 | MQLDVYGYVVETLYLAHQSGVARCGDTAVLHQRLVEHLAERWQMPDEGIWEVRGERRHFVHSKVMAWAVVDRTIRLVEAGALDAGLCALMELREAIRHEVCTRGFEP | not soluble
8 | MQLNKVLKGLMLALPVLAVAACSSNKSANNDQSGMGAGTGTENGSNLSSEEQARLQMQELQKNNIVYFGFDKYDIGSDFAQMLDAHAAFLRSNPSDKVVVEGHADERGTPEYNIALGERRASAVKMYLQGKGVSADQISIVSYGKEKPAVLGHDEAAFAKNRRAVLVY | not soluble
9 | MQNFTLHTPTKVLFGTGQIAQLTQEIPADARILITYGGGSIKQNGVLDQVHQALKGFDFLEFGGIEPNPTYETLMKAVELCRTEGINFLLAVGGGSVLDGTKFIAAAVNYPQDPWHILETTGRDITEALPMGSVLTLPATGSEANNGAVISRRSTGDKQHFFSPHVQPLFAVLDPVVTYTLPPRQVANGVVDAFVHTIEQYLTYPVDAKVQDRFAEGLLLTLIEEGPKALKDPENYNVRANIMWSATMALNGLIGAGVPQDWATHMLGHELTARHGLDHAQTLAVVLPALLVAKKQQKRAKLLQYAERVWGLREGSEDQRIDAAIEATRHFFESLGVATRLSAYKLDGSSIPDLIKKLEEHGMTKLGEHSDITLADSKRIYEAAV | not soluble
10 | MQNMFDGVQLFVEVVEAGGFAKAGKRLSLTRSTIGKAIARLEMRLGVQLFQRTTRVQSLTEDGQQYYERCLRAIKELRAGEAMLEQGRREVAGRLHVSLPVLFGRQCVAPILRTYAREHPQLELELNFSDHHVDLIADGFDLAVRNGPLGNGTTLRARRLGNQRKILCASPTYLAARGKPHTLADLADHDLLTYCRNDRNMAWTLPDATGALVDIPITSRLRCNDLEVIADTAVDGMGVAWLPYWLLMERMQRGELIGIWGDRPSAVIECHVVWPAAQHVPLRSRLAINLLAAELPKYLEA | not soluble
11 | MQNNNEFKIGNRSVGYNHEPLIICEIGINHEGSLKTAFEMVDAAYNAGAEVVKHQTHIVEDEMSDEAKQVIPGNADVSIYEIMERCALNEEDEIKLKEYVESKGMIFISTLFSRAAALRLQRMDIPAYKIGSGECNNYPLIKLVASFGKPIILSTGMNSIESIKKSVEIIREAGVPYALLHCTNIYPTPYEDVRLGGMNDLSEAFPDAIIGLSDHTLDNYACLGAVALGGSILERHFTDRMDRPGPDIVCSMNPDTFKELKQGAHALKLARGGKKDTIIAGEKPTKDFAFASVVADKDIKKGELLSGDNLWVKRPGNGDFSVNEYETLFGKVAACNIRKGAQIKKTDIE | soluble
12 | MQPLFTQERRIFHKKLLDGNILATNNRGVVSNADGSNTRSFNIAKGIADLLHSETVSERLPGQTSGNAFEAICSEFVQSAFEKLQHIRPGDWNVKQVGSRNRLEIARYQQYAHLTALAKAAEENPELAAALGSDYTITPDIIVTRNLIADAEINRNEFLVDENIATYASLRAGNGNMPLLHASISCKWTIRSDRAQNARSEGLNLVRNRKGRLPHIVVVTAEPTPSRISSIALGTGEIDCVYHFALYELEQILQSLNYEDALDLFYIMVNGKRLKDISDLPLDLAV | soluble
13 | MQPVTKNGESMNKTALLLTVVGAVLLTGCARQENEYTVKEYTSMANPASVYCVEQGGQLEMVTENEQRVTYCVTKDGEKIEQWEYFRQNHDQQ | not soluble
